According to US20200188539A1:

Target: prostate specific membrane antigen (human (human prostate LNCaP cells)) (UniProt Q04609)
Test: cell-based or functional assay

prostate specific membrane antigen (human (human prostate LNCaP cells)), sequence (Q04609 whole entry): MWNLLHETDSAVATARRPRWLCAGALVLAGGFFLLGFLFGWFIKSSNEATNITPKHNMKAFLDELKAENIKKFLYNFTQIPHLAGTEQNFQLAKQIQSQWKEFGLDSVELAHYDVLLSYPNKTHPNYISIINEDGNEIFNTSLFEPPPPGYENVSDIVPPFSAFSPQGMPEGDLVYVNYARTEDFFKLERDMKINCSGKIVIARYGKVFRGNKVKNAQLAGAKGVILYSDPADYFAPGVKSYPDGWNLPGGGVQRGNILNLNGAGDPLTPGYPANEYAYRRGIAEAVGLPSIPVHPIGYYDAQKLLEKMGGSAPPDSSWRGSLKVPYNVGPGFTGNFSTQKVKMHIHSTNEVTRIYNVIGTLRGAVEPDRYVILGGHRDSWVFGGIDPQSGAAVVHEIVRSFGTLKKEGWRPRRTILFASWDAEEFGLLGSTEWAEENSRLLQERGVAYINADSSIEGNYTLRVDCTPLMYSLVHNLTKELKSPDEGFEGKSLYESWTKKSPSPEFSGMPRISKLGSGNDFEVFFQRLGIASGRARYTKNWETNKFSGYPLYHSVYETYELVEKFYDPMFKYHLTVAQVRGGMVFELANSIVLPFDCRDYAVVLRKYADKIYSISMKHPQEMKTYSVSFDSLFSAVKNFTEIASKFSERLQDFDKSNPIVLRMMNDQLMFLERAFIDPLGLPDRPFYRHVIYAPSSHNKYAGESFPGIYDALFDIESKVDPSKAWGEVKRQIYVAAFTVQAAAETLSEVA

[DUPA-6-Ahx-Lys(DOTA)-6-Ahx-RM2] (peptide)
IC50 (NAALADase assay in human prostate LNCaP cells, [N-acetyl aspartyl 3H-glutamate]): 9.3 nM
IC50 LNCaP cells (NAALADase assay, [N-acetyl aspartyl 3H-glutamate] substrate, LNCaP homogenized cell membranes): 10.5 nM
